Laboratory results published in the DeepSol protein solubility set.

Assay: soluble on expression in E. coli; label from the status in PepcDB or PDB records

| Sequence | soluble on expression in E. coli |
| --- | --- |
| MSLDYGINFWSDNDFIIEDGQVKINYKTKPAIIDIVKKVREEGYRGPLLLRFPHLIKKQVDKIFTHFETSIKQYHYKGQFKAVFPLKVNQFPNFVLPLVELSQNRCYGLEAGSKAELIIAMAYTNKGSPITVNGFKDKEMISLGFIAANMGHEITLTIEGLNELETIIEVAEEMGKPCPNIGLRIRLHSSGIGIWAKSGGINSKFGLTSTELLEGIRLLEKHKLIEKFTMIHFHIGSQISDISPLKKAMREAGNIYAELRKMGAKNLKSVNIGGGLAVEYTQHEGSPNRNYTLDEFAGDVVFSLKEIAKNKKEPEPDIYIESGRYIAASHALLVAPVLELFSQEYDEKALHLKDKNPQLIEELNELYNTVNEKYAIEYLHDSLDHMESLLTLFDLGYIDLQDRSNTEILVHLIIKKVIKILKHKNHSDIIRIQEQVQERYLLNCSFFQSLPDYWGLEQSFPVMPLDRLNKRPTRSASLWDITCDSDGEIGFDLNKPLFLHDVDVTTEEYFLGFFLVGAYQEVLGMRHNLFTHPTELSVEFEEDGTHSVTNLLEAQTILDVLDDLDYDTKEIERRLKQRIEDSELIDDETRKEVLGQLYVMLSENGYLRTITNGEGHHHHHH | soluble |
| MSLEDCVISEWGPWTQCALPCNPSGSRQRSADPIRQPADEGRACPDAVEKEPCSLNKNCYHYDYNVTDWSTCQLSEKAVCGNGIKTRMLDCVRSDGKSVDLKYCEELGLEKNWPMNTSCTVECPVNCQLSDWSSWSQCSQTCGLTGKMIRKRTVTQPFQGDGRPCPSLMEQSKPCPVKPCYRWQYGQWSPCQVQEAQCGEGTRTRNISCVVSDGSAEDFSKVVDEEFCANTELEGHHHHHH | not soluble |
| MSLEDTLQAPTPLQIERWLRKQFYSVDRNREDRISAKDLKNMLSQVNYRVPNMRFLRERLTDLEQRSGDITYGQFAQLYRSLMYSAQKTMDLPFLEASTLRAGERPELCRVSLPEFQQFLLDYQGELWAVDRLQVQEFMLSFLRDPLREIEEPYFFLDEFVTFLFSKENSVWNSQLDAVCPDTMNNPLSHYWISSSHNTYLTGDQFSSESSLEAYARCLRMGCRCIELDCWDGPDGMPVIYHGHTLTTKIKFSDVLHTIKEHAFVASEYPVILSIEDHCSIAQQRNMAQYFKKVLGDTLLTKPVEISADGLPSPNQLKRKILIKHKKLAEGSAYDENSPLGDLLRGVLDVPACQIAIRPEGKNNRLFVFSISMASVAHWSLDVAADSQEELQDEGHHHHHH | not soluble |
| MSLEDTTITFWHAMNGVQEEALTKLTKDFMKENPKIKVELQNQSAYPDLQAKINSTLTSPKDLPTITQAYPGWLWNAAQDEMLVDLKPYMDDDTIGWKDAEPIREVLLDGAKIDGKQYGIPFNKSTEMLFYNADLLKEYGVEVPKTLEELKEASKTIYEKSNKEVVGAGFDSLNNYYAIGMKNKGVDFNKDLDLTSKDSQEVVDYYRDGIEAGYFRTAGSDKYLSGPFANKKVAMFVGSIAGAGFVQKDAEAGGYEYGVAPRPEKINLQQGTDIYMFDSATPEQRTAAFEFMKFLATPDSQLYWAQQTGYMPILESVLHSDEYKNSKTTKVPAQLENAVKDLFAIPVEENADSAYNEMRTIMESIFASSNKDTRKLLKDATSQFEQAWNQEGHHHHHH | soluble |
| MSLEFGRELPGKRDPQARLKDYKELYLDFSATQIKNQAARCMNCGVPFCHSGCPLGNIIPEFNDAVYRNDWEEAAEILFSTNNFPEFTGRICPAPCEASCVLGINKPPVTIENIEKSIVETAFEKGILKPNPPKKRTGKTVAVVGSGPAGLAAAAQLNSAGHTVTVFERADQVGGLLRYGIPDFKLEKWVIDRRVKLMEEEGVIFKTNTNVGVTVKAKDIVKEFDAVVLTGGSTVGRDLPIPGRQFKGVHFAMEFLSQQNKRVANIKPEIDHTGEAYKNGDLLATAKNVVVIGGGDTGSDCVGTSNRHGAKSVLQFELMPKPPENKNETTPWPNWPMILRTSTSHEEGCDRLWSITTKEFIGDADGNLTGLKIAEMGWVTAPDSKLPKYQELPGTERVIPCELTLLAMGFLHPQHAGMLNELGVEYDERGNIKANGKYQTNVDKVFTAGDMRRGQSLVVWAISEGREAARNVDIFLMGTTSLEAKDHGMLDTVYAEGHHHHHH | soluble |
| MSLEFLQRDQAPLTAEEWEQIDKTAYEVFKSTVVCRKFMPVVGPFGAGHQVVSYDVLYGVEPGVCEVKPGQEYKVCEPVRTGERKHVPVPTLYKDFVISWRDLEHWRQFNLPVDTTGVAAAASSLAVAEDKLILFGNQEMGIEGFLTAKGTLREELSDWEKVGNAFQDVVKGISRLVEKGFYTNYYLIVNPKRYFLLNRIHDNTGLLELEQIKKVVKEVYQTPIIPEDIVLLVSASPANFDLAIALDVNVAFVETSNMNHTFRVMEMVVPRIKRPEAILIFSSEGHHHHHH | not soluble |
| MSLEKAARHKQEVDTVQDKKVVNITGQGSTSRFFLPTALIRLRDASAQSIRTVLNQFFDRADDALFELADRAGTDQEQTRYFDAMRELRLRRKSMTVAVLHHVGQAFNDIGKFRPQSTVSSLDSVDEGFLSLLDHAELEQQVAIDNMVTKLRYQYSEALRHLSLRVRHLLPGVTLEDDQMPLCPEVLCGGLAAASKDLDVDIKARLIVLKLFDQLLVTSLGEVYHGANVTLIKEGVLPDSKAVRPVQTARSRQGAPVPPPSVVYREADWYGVGQPQAEVSAATFSQLSALLRQGQPAYGDGQAPASGGQWLQTDALLARLSQVQTAFGNDPGAPLVSLSQQLQPVLQNSSGQSLRPGQVDNDVINLVAMLFEFILDDRHLHSVMKSLLGRLQIPILKVALTDKNFFNRGGHPARKLLNEMALAATGWTEKRPGQRDPLLDKISAVVNRILAEFSTDVSLFNELLDDFNQFSDLDQRRSDLVEQRLRDAEEGRARHEQATADTKELLHEAMDGRLLPEPVQDMLNGPWSHYLHWLALHESTDSEAWQRAKTLTEQLIWTIDPVPLTATTHELLQQAIPQVIEQLRGALEGVAWDGLSVEMVVRDLELVHLDVFQRLVIAPSEAAGNDHAQIDDSQEAPAVRADAVPSDTTNTSADVSHPAPALPVAADDPKEAVVARVPEPTRAQPVVAEEWLAKADGLRVGCWLELNRDGSQIRCKLAAFIRAVDKYIFVNRSGAKVAEYRRNELAEMMAQGHIEILDDGLIFDRALESIIDNLRTSRREGHHHHHH | not soluble |
| MSLELENFQEYNDPVLYDKENRYTGDIPFLLKWAGKVDGTIVDLACGTGRATIPLASKGYKLMGVDVHKGMLEAAREKSSRLNLPIEWIKQDCTKLSLNLMSPFIYSVGNVFQHFLTNEEQDSFLTSVNKHLKESGIFIFDTRFPSKEELLQPNTEEYWKSYQDTDTGQKVDVYTISQYDPLTQIQHYTMIRKSVNAEGLAVNEKRTNIRLRYVFPKEMERLLSANGFEIIDVYQDWQETPLTRDSDQMIYVCKKSSEGHHHHHH | soluble |
| MSLELPAEVQEMPIYREWISGILAGKIASPFWEMAQPQKNQHCLDIGCGVSFLIYPWRDWQAFFYGQDVSNVARDTLNSRGSQLNSKLFKGVELGAAHQLKYTLSYFDLAIATGFSCYFPLEYWTSVLQAVKRVLKPDGHFVFDILNAAHPQAEDWAVLETYLGAEVFLEPVTEWEKIINAAGAKVVGRQPGEFFDLYKLRLEHHHHHH | soluble |
| MSLELSDCSVPLTKEDIKDFEMELNIKIPAAMKNFYLKFNGGMPSPYCFQPQDEDLDWVEINAFFPIKERTNAFETIEVIAKDIWSKNLMPCNLLPFAMDSGGNYYTLNLKNKKIYYYLTDEWDENASKEYNFETNTRYIAQSFNYFINHFIEEEEEGHHHHHH | soluble |
| MSLELTVFSIGDWGEKTECLVNVTTKMGSLESAMNPKFIISVGDNFYQRGVKSVEDAAWTEILEEPFGKLSKHLKVHSCLGDHDWRGSTTAQIDRTNYANNTRWYLPGYWWYEKVTFTSEVSLPSLFEKSGLGEISANNSFHFNSSKTENSTSCEIDCLDEIVDNLNTMVNRNNSWNEDLSYKTSISEYFSEKQVNSTAVFIYIDSWTLTQDPFKKTSISYKYSQLEFIEQTLKAAVFENVDWIILVTHYSIYSSGLHGPHTRLASILMPLIKKYRVDFIISGHDHHSEILVPEDFNSYFQIVGASSKEGHHHHHH | soluble |
| MSLEMTIAYIQENPYRLADEISGIGFKKADQIARAMGISLNSKYRIHSGIKYMLGTFHGEGHTYAPGDILIDRTRELLSVEESEVVEGIQELALKQKIQLERQDEEIIVYSMPYFYAETNTCNKLIELSQVELEPLEIDVDYEIESIEKEDGIALATNQKEAIRQSIENGIIVITGGPGTGKTTIINTLIKVFGKLKKKILLAAPTGRASKRMTEATGKEAKTIHRLLEMGYSDDDDGMLFQRNEENPLPADIIIIDEVSMVDIMLMNSLLKAISVGTRLIFVGDVDQLPSVGAGNVLRDIIDSKIIKVVRLNEIFRQAEESMIVVNAHKINKGEYPILNHKDKDFYFMSRSRSEDILNTIIGLVKERLPKHYKFDPIKDIQVLTPMKKGEVGSINLNKELQNYLNPPDKYKREKELREKVFRVGDKVMQIKNNYTLKWASLDPDTEERQGEGVFNGDMGYIQHINPEAQELTVFFDDNRSVVYTYTQLDELELAYAITIHKSQGSEFPVVVMPVTWGPPMLLTRNLLYTAITRARSLVVLVGTENYLNLMVSNNKIVERYSGLGIRLKKFYNEGHHHHHH | soluble |
| MSLENDSLEITYLGKRYKISLNNTFSDEMKRTLKERFHNQELNALELLKDYLHESCQNEYLHNELQKLLEKISSCSIT | not soluble |
| MSLEQHGNVVSVGLKLYNEILKETITRFKERRIEKKHSVNVEIENPPGRFFIPEDYVQNPVERLRLYRRLASSLDEEDLEEILEEMKDRFGEPPEEVKLLVDYFRLRVRASKLGIKKIRFDHSMVEIFPSRNSPFLNHPRYDRRSGSVVLYTRKDPVEFLMDMLKKEGHHHHHH | soluble |
| MSLEQLLGRGEAAPSVRYDETIQKIIPIIKNSIRLPDDLRDRKTIWEFIRPQLMGIKALEAGFSMALWDWWGQKIGRPIFELLSVKTKMLPQTSYTISIGGFDELGAKLEEAKPYSILKVKLGTPKMDKEIITEIRRHTEKLIRVDANEGWTEDVALEMSFWLADRNIEFIEQPFPAKDLNSSIELKKKSPLEIFADENSLNSNDIKPIRHAFHGINIKLMKCGSLEEGKKMIDVARENGLKVMLGCMVETSVGITSASHLAGEVDFVDLDGNLLIKNDPYSGVLVNNGRLVLQKGNGSGVKLSSDYRNILEEGHHHHHH | soluble |
| MSLEQPGFKLRAVTIHFEASADVDSIEDAVFKAKEAIDRLTAEKGVEVWSLRAVLTPGESVADSLGRVAELEPLVEEEGVFINLGLHNASADDWEAVSGIVESGFFLSFALENGTWEEARSYSKLLHRLADKSPDLAVHIGFNPLGTHILTPYFPLATSPGEQRTVTVALLYPRYLLESFRKGGLQAVIDSMVDAAQLSGEYGKAVAKDVEGSFAGVDLSISPWMEESSLALVEEVGGVRLPEPGFAYGLRLVNEAIAAAASKTGYAVGFNEVQLPVAEDSKLKVRVAELETSARDLLRLSGVCLAGLDMAVIPASLDGVAGLLLEARAYSRAKGSIVGVRLIPLDGVEPGDEVFLKRFGEVPVIPIEGHHHHHH | not soluble |
